B1: RHOBTB2 (parent)
chain: LYTGELDENERDLMHIAHIAELLE

Variants of: B1
Assay: protein stability index of a GFP-peptide fusion (GPS, HEK-293T) (PSI 1-6); higher = more stable
Conditions: c terminus: a fixed tail appended
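Note: lentivirally expressed fusions sorted by FACS into six bins by GFP to DsRed ratio, PSI derived from sequencing read proportions per bin multiplied by bin number.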

In order of falling protein stability index:
1. LHTGELDENERDLMHIAHIAELLE [Y2H]  3.8
2. LDTGELDENERDLMHIAHIAELLE [Y2D]  3.68
3. LETGELDENERDLMHIAHIAELLE [Y2E]  3.49
4. LVTGELDENERDLMHIAHIAELLE [Y2V]  3.45
5. LYTGRLDENERDLMHIAHIAELLE [E5R]  3.45
6. LTTGELDENERDLMHIAHIAELLE [Y2T]  3.44
7. LYTGEEDENERDLMHIAHIAELLE [L6E]  3.4
8. LSTGELDENERDLMHIAHIAELLE [Y2S]  3.34
9. LGTGELDENERDLMHIAHIAELLE [Y2G]  3.25
10. LYTGELDDNERDLMHIAHIAELLE [E8D]  3.23
11. LRTGELDENERDLMHIAHIAELLE [Y2R]  3.21
12. LPTGELDENERDLMHIAHIAELLE [Y2P]  3.2
13. LNTGELDENERDLMHIAHIAELLE [Y2N]  3.17
14. QYTGELDENERDLMHIAHIAELLE [L1Q]  3.08
15. DYTGELDENERDLMHIAHIAELLE [L1D]  3.08
16. LYFGELDENERDLMHIAHIAELLE [T3F]  3.07
17. FYTGELDENERDLMHIAHIAELLE [L1F]  3.02
18. LQTGELDENERDLMHIAHIAELLE [Y2Q]  3.01
19. LYDGELDENERDLMHIAHIAELLE [T3D]  3
20. LYEGELDENERDLMHIAHIAELLE [T3E]  2.98
21. RYTGELDENERDLMHIAHIAELLE [L1R]  2.93
22. PYTGELDENERDLMHIAHIAELLE [L1P]  2.92
23. LYTGELDQNERDLMHIAHIAELLE [E8Q]  2.85
24. NYTGELDENERDLMHIAHIAELLE [L1N]  2.8
25. VYTGELDENERDLMHIAHIAELLE [L1V]  2.8
26. YYTGELDENERDLMHIAHIAELLE [L1Y]  2.78
27. LFTGELDENERDLMHIAHIAELLE [Y2F]  2.78
28. LYTGKLDENERDLMHIAHIAELLE [E5K]  2.75
29. LYTGTLDENERDLMHIAHIAELLE [E5T]  2.75
30. LKTGELDENERDLMHIAHIAELLE [Y2K]  2.74
31. LATGELDENERDLMHIAHIAELLE [Y2A]  2.73
32. LMTGELDENERDLMHIAHIAELLE [Y2M]  2.73
33. MYTGELDENERDLMHIAHIAELLE [L1M]  2.72
34. EYTGELDENERDLMHIAHIAELLE [L1E]  2.72
35. LYTGFLDENERDLMHIAHIAELLE [E5F]  2.71
36. CYTGELDENERDLMHIAHIAELLE [L1C]  2.67
37. LYTGDLDENERDLMHIAHIAELLE [E5D]  2.63
38. AYTGELDENERDLMHIAHIAELLE [L1A]  2.62
39. LYSGELDENERDLMHIAHIAELLE [T3S]  2.61
40. HYTGELDENERDLMHIAHIAELLE [L1H]  2.61
41. LYTGEYDENERDLMHIAHIAELLE [L6Y]  2.6
42. LYAGELDENERDLMHIAHIAELLE [T3A]  2.58
43. LYQGELDENERDLMHIAHIAELLE [T3Q]  2.58
44. LITGELDENERDLMHIAHIAELLE [Y2I]  2.54
45. LYTGSLDENERDLMHIAHIAELLE [E5S]  2.54
46. GYTGELDENERDLMHIAHIAELLE [L1G]  2.53
47. SYTGELDENERDLMHIAHIAELLE [L1S]  2.52
48. LYTGPLDENERDLMHIAHIAELLE [E5P]  2.52
49. KYTGELDENERDLMHIAHIAELLE [L1K]  2.49
50. LYTGELDRNERDLMHIAHIAELLE [E8R]  2.46
51. WYTGELDENERDLMHIAHIAELLE [L1W]  2.43
52. LYTGELDTNERDLMHIAHIAELLE [E8T]  2.4
53. LYTGELDHNERDLMHIAHIAELLE [E8H]  2.39
54. LLTGELDENERDLMHIAHIAELLE [Y2L]  2.37
55. LYTGGLDENERDLMHIAHIAELLE [E5G]  2.34
56. LYCGELDENERDLMHIAHIAELLE [T3C]  2.31
57. LYTGWLDENERDLMHIAHIAELLE [E5W]  2.3
58. LYTGELDSNERDLMHIAHIAELLE [E8S]  2.29
59. LYTGELDKNERDLMHIAHIAELLE [E8K]  2.28
60. LYNGELDENERDLMHIAHIAELLE [T3N]  2.25
61. LYTGHLDENERDLMHIAHIAELLE [E5H]  2.24
62. LYMGELDENERDLMHIAHIAELLE [T3M]  2.23
63. LYTGNLDENERDLMHIAHIAELLE [E5N]  2.23
64. LYTGQLDENERDLMHIAHIAELLE [E5Q]  2.22
65. LYVGELDENERDLMHIAHIAELLE [T3V]  2.21
66. LYTGELDNNERDLMHIAHIAELLE [E8N]  2.21
67. LYKGELDENERDLMHIAHIAELLE [T3K]  2.16
68. LYIGELDENERDLMHIAHIAELLE [T3I]  2.15
69. LYTGELDPNERDLMHIAHIAELLE [E8P]  2.15
70. LYPGELDENERDLMHIAHIAELLE [T3P]  2.14
71. LYTGALDENERDLMHIAHIAELLE [E5A]  2.12
72. TYTGELDENERDLMHIAHIAELLE [L1T]  2.1
73. LYTGMLDENERDLMHIAHIAELLE [E5M]  2.1
74. LYHGELDENERDLMHIAHIAELLE [T3H]  2.08
75. LYYGELDENERDLMHIAHIAELLE [T3Y]  2.08
76. LYTGELDANERDLMHIAHIAELLE [E8A]  2.08
77. LYTGELDCNERDLMHIAHIAELLE [E8C]  2.05
78. LCTGELDENERDLMHIAHIAELLE [Y2C]  2.04
79. LYTGLLDENERDLMHIAHIAELLE [E5L]  2.02
80. IYTGELDENERDLMHIAHIAELLE [L1I]  2
81. LYRGELDENERDLMHIAHIAELLE [T3R]  1.98
82. LYTGELDFNERDLMHIAHIAELLE [E8F]  1.96
83. LYLGELDENERDLMHIAHIAELLE [T3L]  1.94
84. LYGGELDENERDLMHIAHIAELLE [T3G]  1.91
85. LYTGELDGNERDLMHIAHIAELLE [E8G]  1.91
86. LYTGYLDENERDLMHIAHIAELLE [E5Y]  1.9
87. LYTGVLDENERDLMHIAHIAELLE [E5V]  1.81
88. LYTGELDMNERDLMHIAHIAELLE [E8M]  1.78
89. LWTGELDENERDLMHIAHIAELLE [Y2W]  1.69
90. LYTGCLDENERDLMHIAHIAELLE [E5C]  1.67
91. LYTGILDENERDLMHIAHIAELLE [E5I]  1.65
92. LYTGELDINERDLMHIAHIAELLE [E8I]  1.62
93. LYTGELDLNERDLMHIAHIAELLE [E8L]  1.57
94. LYWGELDENERDLMHIAHIAELLE [T3W]  1.54
